System: subcutaneous tissue
Test: Tissue histology surrounding CSII catheters, pathologist grading
Type: in vivo, swine
Conditions: for Tissue histopathology compared with catheters infused with saline or not infused: day 5 of CSII infusion, result in words
Description: The swine were euthanized after completion of the third PK study on day 5. A 50 μL bolus of methylene blue dye was then infused into the CCs and ICs to determine whether dye migrated onto the skin surface. The skin and subcutaneous tissue surrounding the 72 catheters were excised and fixed in 10% formalin for 3 days. The tissue was grossed and processed using a long dehydration protocol for fatty tissue.[21] Specimens were sectioned perpendicular or parallel to the skin surface depending on the location and angle of the cannula in the excised tissue specimen. Four-micrometer-thick tissue sections were stained with hematoxylin and eosin (nuclei are stained blue/purple, extracellular matrix [ECM] and cytoplasm are stained in pink), Masson's trichrome (collagen/connective tissue is stained blue, muscle fibers and erythrocytes are stained bright red, and cytoplasm is stained pink), and a reticulin stain (type III collagen is stained silver).
A surgical pathologist analyzed the stained tissue for no, mild, moderate, or severe (grades 0, 1, 2, or 3, respectively) hemorrhage, reticular fiber disruption, fibrin deposition, fat necrosis, and collagen deposition compared with unaffected tissue. This grading system was newly established by the lead pathologist of this study who predefined these criteria before analyzing all samples. The pathologist remained blinded throughout the study. The size of the debris field was measured (mm) using the Aperio ScanScope image capture device and ImageScope software (Leica Biosystems). Topography of tissue planes was considered regular if subcutaneous tissue was pushed down evenly in the direction of the cannula tip and irregular or intermediate otherwise. Irregular or regular reservoir geometry described the shape of the debris field surrounding the catheter tip.
Fisher's exact test was used to evaluate the differences in histology profiles of CCs and ICs. A chi-squared test was applied to analyze differences in methylene blue dye leakage.

[1] = swine s.c. tissue, day 5, insulin-infused CSII catheters (CC + IC), count (percent in brackets)
[2] = swine s.c. tissue, day 5, insulin-infused CSII catheters (CC + IC), count (percent in brackets), P < 0.05 between infusion types
[3] = swine, day 5, insulin-infused CC, count (percent of 11 catheters)
[4] = swine, day 5, insulin-infused IC, count (percent of 12 catheters)

insulin lispro
Collagen deposition at tip: catheters graded Mild [1]: 16 (66.7)
Collagen deposition at tip: catheters graded Moderate [1]: 5 (20.8)
Collagen deposition at tip: catheters graded None [1]: 2 (8.3)
Collagen deposition at tip: catheters graded Severe [1]: 1 (4.2)
Fat Necrosis: catheters graded Mild [1]: 5 (20.8)
Fat Necrosis: catheters graded Moderate [1]: 12 (50.0)
Fat Necrosis: catheters graded None [1]: 1 (4.2)
Fat Necrosis: catheters graded Severe [1]: 6 (25.0)
Hemorrhage at tip base: catheters graded Mild [1]: 13 (54.2)
Hemorrhage at tip base: catheters graded Moderate [1]: 10 (41.7)
Hemorrhage at tip base: catheters graded None [1]: 1 (4.2)
Hemorrhage at tip base: catheters graded Severe [1]: 0
Reticular Fiber Disruption: catheters graded Mild [1]: 9 (37.5)
Reticular Fiber Disruption: catheters graded Moderate [1]: 6 (25.0)
Reticular Fiber Disruption: catheters graded None [1]: 1 (4.2)
Reticular Fiber Disruption: catheters graded Severe [1]: 8 (33.3)
Fibrin Deposition in Reservoir: catheters graded Mild [2]: 2 (8.3)
Fibrin Deposition in Reservoir: catheters graded None [2]: 1 (4.2)
Fibrin deposition in reservoir: catheters graded Moderate [2]: 11 (45.8)
Fibrin deposition in reservoir: catheters graded Severe [2]: 10 (41.7)
Tissue histopathology compared with catheters infused with saline or not infused (swine s.c. tissue): increased fibrin
Tissue histopathology compared with catheters infused with saline or not infused (swine s.c. tissue, listed as lispro insulin): greater amount of fibrin in the reservoir
Collagen Deposition at Tip: catheters graded Mild [3]: 9 (82%)
Collagen Deposition at Tip: catheters graded Moderate [3]: 2 (18%)
Collagen Deposition at Tip: catheters graded None [3]: 0
Collagen Deposition at Tip: catheters graded Severe [3]: 0
Fat Necrosis: catheters graded Mild [3]: 4 (36%)
Fat Necrosis: catheters graded Moderate [3]: 7 (64%)
Fat Necrosis: catheters graded None [3]: 0
Fat Necrosis: catheters graded Severe [3]: 0
Fibrin Deposition in Reservoir: catheters graded Mild [3]: 0
Fibrin Deposition in Reservoir: catheters graded None [3]: 0
Fibrin deposition in reservoir: catheters graded Moderate [3]: 3 (27%)
Hemorrhage at Tip Base: catheters graded Mild [3]: 7 (64%)
Hemorrhage at Tip Base: catheters graded Moderate [3]: 4 (36%)
Hemorrhage at Tip Base: catheters graded None [3]: 0
Hemorrhage at Tip Base: catheters graded Severe [3]: 0
Reticular Fiber Disruption: catheters graded Mild [3]: 9 (82%)
Reticular Fiber Disruption: catheters graded Moderate [3]: 2 (18%)
Reticular Fiber Disruption: catheters graded None [3]: 0
Reticular Fiber Disruption: catheters graded Severe [3]: 0
Collagen Deposition at Tip: catheters graded Mild [4]: 7 (58%)
Collagen Deposition at Tip: catheters graded Moderate [4]: 3 (25%)
Collagen Deposition at Tip: catheters graded None [4]: 1 (8%)
Collagen Deposition at Tip: catheters graded Severe [4]: 1 (8%)
Fat Necrosis: catheters graded Mild [4]: 1 (8%)
Fat Necrosis: catheters graded Moderate [4]: 5 (42%)
Fat Necrosis: catheters graded None [4]: 0
Fat Necrosis: catheters graded Severe [4]: 6 (50%)
Fibrin Deposition in Reservoir: catheters graded Mild [4]: 2 (17%)
Fibrin Deposition in Reservoir: catheters graded None [4]: 0
Fibrin deposition in reservoir: catheters graded Severe [4]: 2 (17%)
Hemorrhage at Tip Base: catheters graded Mild [4]: 6 (50%)
Hemorrhage at Tip Base: catheters graded Moderate [4]: 6 (50%)
Hemorrhage at Tip Base: catheters graded None [4]: 0
Hemorrhage at Tip Base: catheters graded Severe [4]: 0
Reticular Fiber Disruption: catheters graded Mild [4]: 0
Reticular Fiber Disruption: catheters graded Moderate [4]: 4 (33%)
Reticular Fiber Disruption: catheters graded None [4]: 0
Reticular Fiber Disruption: catheters graded Severe [4]: 8 (67%)

From PMC5689134, “Detailed Analysis of Insulin Absorption Variability and the Tissue Response to Continuous Subcutaneous Insulin Infusion Catheter Implantation in Swine” (Diabetes Technology & Therapeutics, 2017)
